Source: patent US20220387578A1

What was measured:
[1] = biological target: H2 HA A/Singapore/1/1957, recombinant soluble trimer (influenza A virus)
[2] = biological target: H5 HA A/Indonesia/05/2005 (H5N1), recombinant (influenza A virus)
[3] = biological target: H12 HA A/duck/Alberta/60/1976, recombinant (influenza A virus)
[4] = biological target: H9 HA A/Hong Kong/1073/99, recombinant (influenza A virus)
[5] = biological target: H15 HA A/shearwater/Western Australia/2576/1979, recombinant (influenza A virus)
[6] = biological target: H14 HA A/mallard duck/Astrakhan/263/1982, recombinant (influenza A virus)
[7] = biological target: H7 HA A/Shanghai/2/2013 (H7N9), recombinant uncleaved trimer (influenza A virus)
[8] = biological target: H3 HA A/Hong Kong/1/1968 (H3N2), recombinant soluble trimer (influenza A virus) (UniProt Q91MA7)

| Substance | EC50 [1] | EC50 relative to wild type rFluA-20 [2] | EC50 [3] | EC50 [4] | EC50 [5] | EC50 relative to wild type rFluA-20 [6] | EC50 [7] | EC50 [8] | EC50 relative to wild type rFluA-20 [4] | EC50 relative to wild type rFluA-20 [7] | EC50 relative to wild type rFluA-20 [3] | EC50 relative to wild type rFluA-20 [5] |
| --- | --- | --- | --- | --- | --- | --- | --- | --- | --- | --- | --- | --- |
| rFluA-20 light chain mutant N53A (antibody) | 0.16 µg/mL | > 100 fold | 0.03 µg/mL | 0.17 µg/mL | 0.06 µg/mL | > 100 fold | 0.87 µg/mL | – | – | – | – | – |
| rFluA-20 heavy chain mutant C101A (antibody) | 0.44 µg/mL | > 100 fold | 0.09 µg/mL | – | 0.11 µg/mL | > 100 fold | – | 0.13 µg/mL | > 100 fold | > 100 fold | – | – |
| rFluA-20 light chain mutant Q55A (antibody) | – | – | – | – | – | – | – | – | – | – | > 100 fold | > 100 fold |
